We go through 25 molecules from PMC12416549 (2024).

This test addresses T1, TNFR1 (Homo sapiens, UniProt P19438).
T1 chain: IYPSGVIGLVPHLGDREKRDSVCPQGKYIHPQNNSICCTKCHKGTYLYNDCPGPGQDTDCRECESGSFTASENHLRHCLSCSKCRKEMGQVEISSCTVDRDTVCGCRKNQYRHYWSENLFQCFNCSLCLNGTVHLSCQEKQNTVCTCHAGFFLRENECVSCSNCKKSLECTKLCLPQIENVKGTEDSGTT
Briefly: yeast display SC50.

B1: E18N (designed binder)
chain: MTLQELLREEALRRAEANAFRYALELLAEKFPEQKEYLLDLAEEIESQIRSLSGVDVEDVRKFLDKEWAWVKELLAEHPAELAEVEAARAARLAELRAEVEAKVAA
B1: the “apparent Kd (screen)” value stood at 0.49 nM.

B2: K30E (designed binder)
chain: MTLQELLREEALRRAEAEAFRYALELLAEEFPEQKEYLLDLAEEIESQIRSLSGVDVEDVRKFLDKEWAWVKELLAEHPAELAEVEAARAARLAELRAEVEAKVAA
On to B2, for which the “apparent Kd (screen)” value turned out to be 0.49 nM.

B3: A19L (designed binder)
chain: MTLQELLREEALRRAEAELFRYALELLAEKFPEQKEYLLDLAEEIESQIRSLSGVDVEDVRKFLDKEWAWVKELLAEHPAELAEVEAARAARLAELRAEVEAKVAA
For the molecule B3, the “apparent Kd (screen)” value was 2.05 nM.

B4: V100D (designed binder)
chain: MTLQELLREEALRRAEAEAFRYALELLAEKFPEQKEYLLDLAEEIESQIRSLSGVDVEDVRKFLDKEWAWVKELLAEHPAELAEVEAARAARLAELRAEDEAKVAA
For the molecule B4, the “apparent Kd (screen)” value is 0.593 nM.

B5: Q48D (designed binder)
chain: MTLQELLREEALRRAEAEAFRYALELLAEKFPEQKEYLLDLAEEIESDIRSLSGVDVEDVRKFLDKEWAWVKELLAEHPAELAEVEAARAARLAELRAEVEAKVAA
As for B5, the “apparent Kd (screen)” value worked out at 22.2 nM.

B6: Q34H (designed binder)
chain: MTLQELLREEALRRAEAEAFRYALELLAEKFPEHKEYLLDLAEEIESQIRSLSGVDVEDVRKFLDKEWAWVKELLAEHPAELAEVEAARAARLAELRAEVEAKVAA
As for B6, the “apparent Kd (screen)” value was 0.869 nM.

B7: F20Q (designed binder)
chain: MTLQELLREEALRRAEAEAQRYALELLAEKFPEQKEYLLDLAEEIESQIRSLSGVDVEDVRKFLDKEWAWVKELLAEHPAELAEVEAARAARLAELRAEVEAKVAA
With B7, the “apparent Kd (screen)” value amounted to 2.25 nM.

B8: K103P (designed binder)
chain: MTLQELLREEALRRAEAEAFRYALELLAEKFPEQKEYLLDLAEEIESQIRSLSGVDVEDVRKFLDKEWAWVKELLAEHPAELAEVEAARAARLAELRAEVEAPVAA
On to B8, for which the “apparent Kd (screen)” value was determined as 0.539 nM.

B9: R97F (designed binder)
chain: MTLQELLREEALRRAEAEAFRYALELLAEKFPEQKEYLLDLAEEIESQIRSLSGVDVEDVRKFLDKEWAWVKELLAEHPAELAEVEAARAARLAELFAEVEAKVAA
Turning to B9, the “apparent Kd (screen)” value was determined as 0.49 nM.

B10: A91P (designed binder)
chain: MTLQELLREEALRRAEAEAFRYALELLAEKFPEQKEYLLDLAEEIESQIRSLSGVDVEDVRKFLDKEWAWVKELLAEHPAELAEVEAARAPRLAELRAEVEAKVAA
Regarding B10, the “apparent Kd (screen)” value stood at 0.49 nM.

B11: L93N (designed binder)
chain: MTLQELLREEALRRAEAEAFRYALELLAEKFPEQKEYLLDLAEEIESQIRSLSGVDVEDVRKFLDKEWAWVKELLAEHPAELAEVEAARAARNAELRAEVEAKVAA
With B11, the “apparent Kd (screen)” value turned out to be 0.79 nM.

B12: F20I (designed binder)
chain: MTLQELLREEALRRAEAEAIRYALELLAEKFPEQKEYLLDLAEEIESQIRSLSGVDVEDVRKFLDKEWAWVKELLAEHPAELAEVEAARAARLAELRAEVEAKVAA
B12: the “apparent Kd (screen)” value amounted to 1.05 nM.

B13: A90T (designed binder)
chain: MTLQELLREEALRRAEAEAFRYALELLAEKFPEQKEYLLDLAEEIESQIRSLSGVDVEDVRKFLDKEWAWVKELLAEHPAELAEVEAARTARLAELRAEVEAKVAA
Take B13: the “apparent Kd (screen)” value stood at 0.79 nM.

B14: K66Y (designed binder)
chain: MTLQELLREEALRRAEAEAFRYALELLAEKFPEQKEYLLDLAEEIESQIRSLSGVDVEDVRKFLDYEWAWVKELLAEHPAELAEVEAARAARLAELRAEVEAKVAA
Turning to B14, the “apparent Kd (screen)” value turned out to be 0.49 nM.

B15: A76T (designed binder)
chain: MTLQELLREEALRRAEAEAFRYALELLAEKFPEQKEYLLDLAEEIESQIRSLSGVDVEDVRKFLDKEWAWVKELLTEHPAELAEVEAARAARLAELRAEVEAKVAA
Take B15: the “apparent Kd (screen)” value came to 0.405 nM.

B16: A88Y (designed binder)
chain: MTLQELLREEALRRAEAEAFRYALELLAEKFPEQKEYLLDLAEEIESQIRSLSGVDVEDVRKFLDKEWAWVKELLAEHPAELAEVEAYRAARLAELRAEVEAKVAA
Regarding B16, the “apparent Kd (screen)” value turned out to be 1.05 nM.

B17: L52T (designed binder)
chain: MTLQELLREEALRRAEAEAFRYALELLAEKFPEQKEYLLDLAEEIESQIRSTSGVDVEDVRKFLDKEWAWVKELLAEHPAELAEVEAARAARLAELRAEVEAKVAA
Regarding B17, the “apparent Kd (screen)” value amounted to 0.593 nM.

B18: F20R (designed binder)
chain: MTLQELLREEALRRAEAEARRYALELLAEKFPEQKEYLLDLAEEIESQIRSLSGVDVEDVRKFLDKEWAWVKELLAEHPAELAEVEAARAARLAELRAEVEAKVAA
As to B18, the “apparent Kd (screen)” value was determined as 10.4 nM.

B19: S47R (designed binder)
chain: MTLQELLREEALRRAEAEAFRYALELLAEKFPEQKEYLLDLAEEIERQIRSLSGVDVEDVRKFLDKEWAWVKELLAEHPAELAEVEAARAARLAELRAEVEAKVAA
For the molecule B19, the “apparent Kd (screen)” value turned out to be 0.49 nM.

B20: A15G (designed binder)
chain: MTLQELLREEALRRGEAEAFRYALELLAEKFPEQKEYLLDLAEEIESQIRSLSGVDVEDVRKFLDKEWAWVKELLAEHPAELAEVEAARAARLAELRAEVEAKVAA
Turning to B20, the “apparent Kd (screen)” value worked out at 0.539 nM.

B21: A91L (designed binder)
chain: MTLQELLREEALRRAEAEAFRYALELLAEKFPEQKEYLLDLAEEIESQIRSLSGVDVEDVRKFLDKEWAWVKELLAEHPAELAEVEAARALRLAELRAEVEAKVAA
On to B21, for which the “apparent Kd (screen)” value came to 0.539 nM.

B22: A11R (designed binder)
chain: MTLQELLREERLRRAEAEAFRYALELLAEKFPEQKEYLLDLAEEIESQIRSLSGVDVEDVRKFLDKEWAWVKELLAEHPAELAEVEAARAARLAELRAEVEAKVAA
Consider B22, for which the “apparent Kd (screen)” value came to 0.49 nM.

B23: Q34K (designed binder)
chain: MTLQELLREEALRRAEAEAFRYALELLAEKFPEKKEYLLDLAEEIESQIRSLSGVDVEDVRKFLDKEWAWVKELLAEHPAELAEVEAARAARLAELRAEVEAKVAA
Regarding B23, the “apparent Kd (screen)” value turned out to be 0.653 nM.

B24: L38F (designed binder)
chain: MTLQELLREEALRRAEAEAFRYALELLAEKFPEQKEYFLDLAEEIESQIRSLSGVDVEDVRKFLDKEWAWVKELLAEHPAELAEVEAARAARLAELRAEVEAKVAA
Regarding B24, the “apparent Kd (screen)” value turned out to be 0.653 nM.

B25: E101I (designed binder)
chain: MTLQELLREEALRRAEAEAFRYALELLAEKFPEQKEYLLDLAEEIESQIRSLSGVDVEDVRKFLDKEWAWVKELLAEHPAELAEVEAARAARLAELRAEVIAKVAA
With B25, the “apparent Kd (screen)” value came to 0.49 nM.
